Measurements: US20250154268A1 (NONA BIOSCIENCES SUZHOU, published 2025)
Read-outs that look alike come from different tables or passages of the source.

How the values were obtained:
human CD25 [1] = biological target: T1, human CD25 (human, UniProt P01589 22-272); test: flow cytometry, SU-DHL-1 cells
T1 construct: whole, on cells; Always presented on cells; also called huCD25; IL2Rα
T1 sequence (looked up): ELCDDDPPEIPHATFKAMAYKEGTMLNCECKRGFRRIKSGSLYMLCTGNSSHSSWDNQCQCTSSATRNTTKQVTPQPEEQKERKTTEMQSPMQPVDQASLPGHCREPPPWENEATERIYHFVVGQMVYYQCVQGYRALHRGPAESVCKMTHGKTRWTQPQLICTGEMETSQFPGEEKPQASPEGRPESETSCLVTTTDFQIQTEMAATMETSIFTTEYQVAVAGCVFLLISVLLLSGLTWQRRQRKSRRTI
Protocol: (§1) Briefly, the CHOK1-huCD25 cells and HEK293-cynoCD25 cells were digested, the SU-DHL-1 cells, Karpas299 cells, Treg cells and Teff cells were collected, and the cells were resuspended in PBS containing 2% BSA. The cells were adjusted to a cell density of 1×10⁶ cells/mL, respectively. […] The cells were incubated at 4° C. for 1 hour in the dark. After the incubation, the cells were rinsed twice by adding pre-chilled PBS containing 2% BSA at 100 μL/well, and centrifuged at 500 g at 4° C. for 5 minutes, and the supernatant was discarded. […] The cells were washed twice by adding pre-chilled PBS containing 2% BSA at 100 μL/well, and centrifuged at 500 g at 4° C. for 5 minutes, and the supernatant was discarded. Finally, the cells were resuspended in pre-chilled PBS containing 2% BSA at 200 μL/well, and the fluorescence signal values were read using a BD CantoII flow cytometer.

human CD25 [2] = biological target: T1, human CD25; test: flow cytometry, Karpas299 cells
human CD25 [3] = biological target: T1, human CD25; test: flow cytometry, Karpas299 cells; remark: listed apart in the source
human CD25 [4] = biological target: T1, human CD25; test: flow cytometry, SU-DHL-1 cells; remark: listed apart in the source
Protocol: as §1

cynomolgus monkey CD25 [5] = biological target: T2, cynomolgus monkey CD25 (cynomolgus monkey, UniProt H6WS54 22-272); test: flow cytometry, HEK293-cynoCD25 cells
T2 construct: whole, on cells; also called cynoCD25
T2 sequence: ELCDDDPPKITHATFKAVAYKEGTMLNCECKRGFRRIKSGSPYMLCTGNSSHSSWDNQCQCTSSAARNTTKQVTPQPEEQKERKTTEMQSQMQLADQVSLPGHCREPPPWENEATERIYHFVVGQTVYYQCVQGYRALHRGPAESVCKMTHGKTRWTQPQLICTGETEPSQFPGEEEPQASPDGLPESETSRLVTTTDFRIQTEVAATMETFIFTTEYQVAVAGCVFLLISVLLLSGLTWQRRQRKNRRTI
Protocol: as §1

cynomolgus monkey CD25 [6] = biological target: T2, cynomolgus monkey CD25; test: flow cytometry, HEK293-cynoCD25 cells; remark: listed apart in the source
Protocol: as §1

human CD25 [7] = biological target: T1, human CD25; test: flow cytometry, SU-DHL-1 cells; remark: listed apart in the source
Protocol: as §1

human CD25 [8] = biological target: T1, human CD25; test: flow cytometry, Karpas299 cells; remark: listed apart in the source
Protocol: as §1

human CD25 [9] = biological target: T1, human CD25; test: flow cytometry, CHOK1-huCD25 cells
Protocol: as §1

human CD25 [10] = biological target: T1, human CD25; test: flow cytometry, Karpas299 cells; remark: listed apart in the source
Protocol: as §1

cynomolgus monkey CD25 [11] = biological target: T2, cynomolgus monkey CD25; test: flow cytometry, HEK293-cynoCD25 cells; remark: listed apart in the source
Protocol: as §1

human CD25 [12] = biological target: T1, human CD25; test: flow cytometry, SU-DHL-1 cells; remark: listed apart in the source
Protocol: as §1

B1: PR007181 (antibody, human IgG1, kappa, V domains shown)
VH: QVQLQESGPGLVKPSGTLSLTCAVSGGSISSSNWWSWVRQSPGKGLEWIGEIYHSGSTNYNPSLKSRVTISVDKSKNQFSLKLSSVTAADTAVYYCARDRLVAVAGIFDYWGQGTLVTVSS
VL: EIVMTQSPATLSVSPGERATFSCRASQTVSSDLAWYQQKPGQAPRLLIYGASTRATGIPARFSGSGSGTEFTLTISSLQSEDFAFYYCQQSNDWPYTFGQGTKLEIKR
notes: Fully human recombinant IgG1, kappa; also called 111C1D7
EC50 (human CD25 [1]): 1.68 nM | Maximum MFI (human CD25 [1]): 32500 MFI | EC50 (human CD25 [2]): 5.81 nM | Maximum MFI (human CD25 [2]): 10200 MFI

B2: PR006769 (antibody, human IgG1, kappa, V domains shown)
VH: QVQLQGSGPGLVKPSGTLSLTCAVSPGSISSSNWWNWVRQPPGKGLEWIGEIYHRGSTNYNPSLKSRVTISVDKSKNQFSLKLSSVTAADTAVYYCTHYYYDSSGYYYGYWGQGTLVTVSS
VL: DIVMTQSPLSLPVTPGEPASISCRSSQSLLHRDVYNYVDWYLQKPGQSPQLLIYLGSNRASGVPDRFSGSGSGTDFTLKISRVEAEDVGVYYCMQALQTPLTFGGGTKVEIKR
notes: PTM variant of PR005436 (VH:D26P); human IgG1
EC50 (human CD25 [3]): 39.3 nM | Maximum MFI (human CD25 [3]): 16800 MFI | EC50 (human CD25 [4]): 2.94 nM | Maximum MFI (human CD25 [4]): 32200 MFI | EC50 (cynomolgus monkey CD25 [5]): 3.53 nM | Maximum MFI (cynomolgus monkey CD25 [5]): 132000 MFI

B3: PR006771 (antibody, human IgG1, kappa, V domains shown)
VH: QVQLQGSGPGLVKPSGTLSLTCAVSPGSISSSNWWNWVRQPPGKGLEWIGEIYHRGSTNYNPSLKSRVTISVDKSKNQFSLKLSSVTAADTAVYYCTHYYYDSSGYYYGYWGQGTLVTVSS
VL: DIVMTQSPLSLPVTPGEPASISCRSSQSLLHRRGYNYVDWYLQKPGQSPQLLIYLGSNRASGVPDRFSGSGSGTDFTLKISRVEAEDVGVYYCMQALQTPLTFGGGTKVEIKR
notes: as for B2
EC50 (human CD25 [3]): 40 nM | Maximum MFI (human CD25 [3]): 8970 MFI | EC50 (human CD25 [4]): 4.56 nM | Maximum MFI (human CD25 [4]): 29800 MFI | EC50 (cynomolgus monkey CD25 [5]): 5.35 nM | Maximum MFI (cynomolgus monkey CD25 [5]): 136000 MFI

B4: PR005436 (antibody, human IgG1, kappa, V domains shown)
VH: QVQLQGSGPGLVKPSGTLSLTCAVSDGSISSSNWWNWVRQPPGKGLEWIGEIYHRGSTNYNPSLKSRVTISVDKSKNQFSLKLSSVTAADTAVYYCTHYYYDSSGYYYGYWGQGTLVTVSS
VL: DIVMTQSPLSLPVTPGEPASISCRSSQSLLHRDGYNYVDWYLQKPGQSPQLLIYLGSNRASGVPDRFSGSGSGTDFTLKISRVEAEDVGVYYCMQALQTPLTFGGGTKVEIKR
notes: Fully human recombinant IgG1, kappa; also called 310D11F6
EC50 (cynomolgus monkey CD25 [6]): 1.75 nM | Maximum MFI (cynomolgus monkey CD25 [6]): 189000 MFI | EC50 (human CD25 [7]): 1.4 nM | Maximum MFI (human CD25 [7]): 33300 MFI | EC50 (human CD25 [8]): 67.2 nM | Maximum MFI (human CD25 [8]): 32100 MFI | EC50 (human CD25 [9]): 0.86 nM | Maximum MFI (human CD25 [9]): 49200 MFI

B5: PR006928 (antibody, human IgG1, kappa, V domains shown)
VH: QVQLVQSGGGVVQPGRSLRLSCAASGFTFSNYDMHWVRQAPGKGLEWVAVIWYDGINKHYTDSVKGRFTMSRDNFKNTLHLQMNSLRAEDTAIYYCAREGAGDAFDIWGQGTMVTVSS
VL: DIQMTQSPSTLSASVGDRVTITCRASQSFDNWLAWYQQKPGKAPKLLIYKASSLESGVPSRFSGSGSGTEFTLTISSLQPDDFATYYCQQYNSYSTFGQGTRLEIKR
notes: Fully human recombinant IgG1, kappa; also called 150G7E2
EC50 (human CD25 [1]): 1.85 nM | Maximum MFI (human CD25 [1]): 34700 MFI | EC50 (human CD25 [2]): 20 nM | Maximum MFI (human CD25 [2]): 10600 MFI

B6: PR006122 (antibody, human IgG1, kappa, V domains shown)
VH: QVQLVESGGGVVQPGRSLRLSCAASGFTFSSYYMHWVRQAPGKGLEWVAVIWYDGSNKYYADSVKGRFTISRDNSKNTLYLQMNSLRAEDTAVYYCAGAGKGELPFDYWGQGTLVTVSS
VL: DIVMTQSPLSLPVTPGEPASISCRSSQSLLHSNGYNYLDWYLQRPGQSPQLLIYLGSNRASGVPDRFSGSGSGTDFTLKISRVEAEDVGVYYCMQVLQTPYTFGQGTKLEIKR
notes: Fully human recombinant IgG1, kappa; also called 189F2G11
EC50 (human CD25 [10]): 1.21 nM | Maximum MFI (human CD25 [10]): 18300 MFI | EC50 (cynomolgus monkey CD25 [11]): 1.63 nM | Maximum MFI (cynomolgus monkey CD25 [11]): 82000 MFI | EC50 (human CD25 [12]): 1.53 nM | Maximum MFI (human CD25 [12]): 43900 MFI

B7: PR006932 (antibody, human IgG1, kappa, V domains shown)
VH: QVQLVQSGAEVKKPGASLKVSCKASGYTFTGYYMHWVRQAPGQGLEWMGWINSNSGDKRYAQKFQGRVTVTRDTSISTAYMELSRLRSDDTAVYYCAREGAGDAFDFWGQGTMVIVSS
VL: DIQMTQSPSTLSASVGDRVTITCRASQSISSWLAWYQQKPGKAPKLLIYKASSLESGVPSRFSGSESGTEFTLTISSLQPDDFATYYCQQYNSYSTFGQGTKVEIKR
notes: Fully human recombinant IgG1, kappa; also called 184B11A4
EC50 (human CD25 [10]): 2.91 nM | Maximum MFI (human CD25 [10]): 12000 MFI | EC50 (cynomolgus monkey CD25 [11]): 3.92 nM | Maximum MFI (cynomolgus monkey CD25 [11]): 151000 MFI | EC50 (human CD25 [12]): 3.51 nM | Maximum MFI (human CD25 [12]): 34400 MFI
